Biological target: T1, FAM-αC-conotoxin PrXA (Conus parius, UniProt P0C8S5 52-83)
T1 chain: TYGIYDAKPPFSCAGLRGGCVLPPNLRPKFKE
Experiment: fluorescence anisotropy; no anisotropy change
Conditions: tags: 5,6-carboxyfluorescein (FAM)

B1: S1 scramble (ssDNA)
DNA: GCCTGTTGTGAGCCTCCTGTCGAAGGGGATGGACCCCTACTTCATTCGCCCGCCTTGAGCGTTTATTCTTGTCTCCC
- binding result: no binding

From article PMC5543128
